The nanobody polyreactivity screen of Harvey et al. (2022)

Test: yeast display, Sf9 membrane polyspecificity reagent, FACS + sequencing; frameworks hold sequencing errors
How it was run: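 Genes from sorted yeast were amplified by colony PCR, read by MiSeq 2 × 250 sequencing and filtered on CDR length. These cells carried a synthetic nanobody library in Saccharomyces cerevisiae BJ5465 and were sorted by FACS into low and high (top ~1%) gates on anti-HA and streptavidin fluorescence. Polyreactivity is labelled according to the gate of origin.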

Row | Sequence | polyreactivity (PSR sort gate)
1 | QVQLVESGGGLVQAGGSLRLSCAASGRIFYPNAMGWYRPAPGKVRELVAGISRSGGSTYYADSVKGRFTLSRDNAKNTVYLQKNSLKPEDTAVYYCAARYYASDRHFRGDYWGQGTQVTVSS | low polyreactivity
2 | QVQLVESGGGLVQAGGSLRLSCAASGRIFYPYAMAWYRQAPGKERELVAAISGSGARKYYADSVKGRFTISRDNAKNTVYLQMNSLKPEDTAVYYCARYQSNSDVYWGQGTQVTVSS | high polyreactivity
3 | QVQLVESGGGLVQAGGSLRLSCAASGRIFYPYAMGWSRQAPGKERELVASISGRGTTTYYADSVKGRFTISRDNAKNTVYLQMNSLKPEDTGVYYCNAYPPTQYGYYYWGQGTQVTVSS | high polyreactivity
4 | QVQLVESGGGLVQAGGSLRLSCAASGRIFYPYAMGWYRPAPGKERELVAVINGSGGSTYYADSVKGRFTISRDNAKNTVYLPMNSLKPEDTAVYYCAADYPKTYTSKFNYWGQGTQVTVSS | high polyreactivity
5 | QVQLVESGGGLVQAGGSLRLSCAASGRIFYPYAMGWYRQAPGKERELVAAIDFSDGNSYYADSVKGRFTISRDNAKNTVYLQMYSLKPEDTAVYYCAVDYTGAWIGVWYDYWGLGTQVTVSS | high polyreactivity
6 | QVQLVESGGGLVQAGGSLRLSCAASGRIFYPYAMGWYRQAPGKERELVAAIDWTAGGTYYADSVKGRFTISRDNAKNTVYLQMNSLKPEDTAVYYCAAEYYIEANGDYWGQGTQVTVSS | low polyreactivity
7 | QVQLVESGGGLVQAGGSLRLSCAASGRIFYPYAMGWYRQAPGKERELVADISSAGSTYYADSVKGRFTISRDNAKNTVYLQMNSLKPEDTAVYYCAADRTSGAYYFRFLYDRDYWGQGTQVTVSS | low polyreactivity
8 | QVQLVESGGGLVQAGGSLRLSCAASGRIFYPYAMGWYRQAPGKERELVAVINGSGGSTYYADSVKGRFTISRDNAKNTVYLQMNSLKPEDTAVYYCAAYFGHYWRYYYWGQGSQVTVSS | high polyreactivity
9 | QVQLVESGGGLVQAGGSLRLSCAASGRIFYQNAMGWYRQAPGKERELVAAISSSGDSTYADSVKGRFTISRDNAKNTVYLQMNSLKPEDTAVYYCAAGVGWEFDYWRQGTQVTVSS | low polyreactivity
10 | QVQLVESGGGLVQAGGSLRLSCAASGRIFYQYAMGWYRQAPGKERELVAAISWSGGNTYYADSVKGRFTISRDNAKKTVYFQMNSLKPEDPAVYYCNRYWYRDRLWLYDYWGQGTQVTVSS | high polyreactivity
11 | QVQLVESGGGLVQAGGSLRLSCAASGRIFYQYAMGWYRQAPGKERELVASISRSGTRTYYADSVKGRFTISRDNAKNTVYLQMNSLKPEDTAVYYCAAGYNLYYGVIYGFDYWGQGTQVTVSS | high polyreactivity
12 | QVQLVESGGGLVQAGGSLRLSCAASGRIFYQYAMGWYRQAPGKERELVASITTSGGNTYYADSVKGRFTISRDNAKITFYLQMNSLKPEDTAVYYCAARFNWRQWLYEYWGQGTQVTGSS | low polyreactivity
13 | QVQLVESGGGLVQAGGSLRLSCAASGRIFYQYAMGWYRQAPGKERELVASITTSGGNTYYADSVKGRFTISRDNAKNTVYLQMNSLKPEDTAVYYCAARFNWRQWLYDYWGQGTQVTVSS | low polyreactivity
14 | QVQLVESGGGLVQAGGSLRLSCAASGRIFYRNAMGWYRQAPGKERELVAAISGSGGSTYYADSVKGRFTISRDNAKNTVYLQMNSLKPEDTAVYYCNVDRSPTHIVGYGYWGQGTQVTVSS | low polyreactivity
15 | QVQLVESGGGLVQAGGSLRLSCAASGRIFYRNAMGWYRQAPGKERELVAGITRGGSTNYADSVKGRFTISRDNAKNTVYLQMNSLKPEDTAVYYCAKAIPAKFYSEAGYDYWGQGTQVTVSS | low polyreactivity
16 | QVQLVESGGGLVQAGGSLRLSCAASGRIFYRNTMGWYRQAPGKERELVAAITRSGGITNYADSVKGRFTISRDNAKNTVYLQMNSLKPEDTAVYYCNAAYLYSASRGVYRYRGDYWGQGTQVTVSS | high polyreactivity
17 | QVQLVESGGGLVQAGGSLRLSCAASGRIFYRNTMGWYRQAPGKERELVAAITWRAGRTYYADSVKGRFTISRDNAKNTVYLQMNSLKPEDTAVYYCNADRTAPERYSRVPSSDSWGQGTQVTVSS | high polyreactivity
18 | QVQLVESGGGLVQAGGSLRLSCAASGRIFYRYAMGWYIQAPWKERELVASISLSGDSTYYADSVKGRFTISRDNAKNTVYLQMNSLKREDTAFYYCDVEGLGAAVYAGDRYDYWGQGTQVTVSS | low polyreactivity
19 | QVQLVESGGGLVQAGGSLRLSCAASGRIFYRYAMGWYRQAPGKERELVAAIRYSGGRTYYADSVKGRFTISRDNAKNTVYLQMNSLKPEDTAVYDCAADGHWYYAPFGGGDYENDYWGQGTQVTVSS | low polyreactivity
20 | QVQLVESGGGLVQAGGSLRLSCAASGRIFYRYAMGWYRQAPGKERELVAAISSGSSTNYADSVKGRFTISRDNAKNTVYLQMNSLKPEDTAVYYCNAERYGKSWRYCYWGQGTQVTVSS | high polyreactivity
21 | QVQLVESGGGLVQAGGSLRLSCAASGRIFYRYAMGWYRQAPGKERELVASISGSGGRTYYADSVKGRFTISRDNAKNTVDLQMNSLKPEDTAVYYCAARIRPSYDWGQGTQVTVSS | high polyreactivity
22 | QVQLVESGGGLVQAGGSLRLSCAASGRIFYRYAMGWYRQAPGKERELVATISSGGSTNYADSVKGRFTISRDNAKNTVYLQMNSLKPEDTAVYYCARQSLRYSYVSRDYWGQGTQVTVSS | low polyreactivity

Row | Sequence | polyreactivity (PSR sort gate)
23 | QVQLVESGGGLVQAGGSLRLSCAASGRIFYRYAMGWYRQAPGKERELVATMSWSGGSTYYADSVKGRFTISRDNAKNTVYVQMNSLKPEDTAVYYCNAAYGYVSRVYYLIEHDYWGQGTQVTVSS | high polyreactivity
24 | QVQLVESGGGLVQAGGSLRLSCAASGRIFYRYVMGWYRQAPGKERELVAAITSSGGSTYYADSVKGRFTISRDNAKNTVYLQMNSLKPEDTAVYYCAADRYTRYRYNYWGQGTQVTVSS | high polyreactivity
25 | QVQLVESGGGLVQAGGSLRLSCAASGRIFYSNAMGWYRQAHGKERELVAAITGSGGRTHYADSVKGRFTISRDNAKNSVYLQMNSLKPEDTAVYYCAKDGYFPEFDYWGQGTQVTVSS | high polyreactivity
26 | QVQLVESGGGLVQAGGSLRLSCAASGRIFYSNAMGWYRQAPGKERELVAAITWRGGSTYYADSVKGRFTISRDNAKNTVYLQMNSLKPEDTAVYYCATDGYDDTHYYYWGQGTQVTVSS | low polyreactivity
27 | QVQLVESGGGLVQAGGSLRLSCAASGRIFYSNTMGWYRQAPGKERELVAGITSSGGSTYYADSVKGRFTISRDNAKYTVYLQMNSLKPEDTAVYYCATSSVAEAKYVTEGTFDYWGQGTQVTVSS | low polyreactivity
28 | QVQLVESGGGLVQAGGSLRLSCAASGRIFYSYAMGGYRQAPGKERELVATITNGGSTNYADSVKGRFTISRDNAKNTVYLQMNSLKPEDPAVYYCATDQFTRSVDFDYWGQGTQVTVSS | high polyreactivity
29 | QVQLVESGGGLVQAGGSLRLSCAASGRIFYSYAMGWYRQAPGNERELVAAIPRSGGRTYYADSVKGRFTISRDKAKNTGYLQMNCLKPEDTAVYDCATVWPSISPYPGYNYWGQGTQVTVSS | high polyreactivity
30 | QVQLVESGGGLVQAGGSLRLSCAASGRIFYTNAMGWYRQAPGKERELVAAISWRGGSTYYADSVKGRFTISRDNAKNTVYFQMNSLKPEDTAVYYCNRYYLSYNYDYWGQGTQVTVSS | high polyreactivity
31 | QVQLVESGGGLVQAGGSLRLSCAASGRIFYTYAMGWYRQAPGKERELVAAITSSGGRTYYADSVKGRFTISRDNAKNTVYLQMNSLKPEVTAVYYCATRYPWGWAMNYWGQGTQVTVSS | high polyreactivity
32 | QVQLVESGGGLVQAGGSLRLSCAASGRIFYTYAMGWYRQAPGKERELVAGISRGGRTYYADSVKGRFTISRDNAKNSVYLQMNSLKPEDTAVYYCAARLQYGIQYRYDYWGQGTQVTVSS | high polyreactivity
33 | QVQLVESGGGLVQAGGSLRLSCAASGRIFYTYAMGWYRQAPGKERELVSSITWSDGNTYYADSVKGRFTISRDNAKNTDYLQMNSLKPEDTAVYYCAAGDSFYVYLWPTYDYWGQGTQVTVSS | low polyreactivity
34 | QVQLVESGGGLVQAGGSLRLSCAASGRIFYVYAMGWSRQAPGKERELVAAITSGGRTYYADSVKGRFTISRDNAKNTVYLQMNSLKPEDTAVYYCAARASSYNYWGQGTQVTVSS | high polyreactivity
35 | QVQLVESGGGLVQAGGSLRLSCAASGRIFYVYAMGWYRQAPRKERELVAAITSGGSTYYADSVKGRFTISRDNAKNTVYLQMNSLKPEDTAVYYCAAYNRGRFRPYRFEYWGQGTQVTVSS | high polyreactivity
36 | QVQLVESGGGLVQAGGSLRLSCAASGRIFYWYAMGWYRQAPGKEREFVAAITSSGGSTYYADSVKGRFTISRDNAKNTVDLQMNSLKPEDTAVYYCAARNPYYTSRGYWGQGTQVTVSS | high polyreactivity
37 | QVQLVESGGGLVQAGGSLRLSCAASGRIFYWYAMGWYRQAPGKERELVAAISRSGSRTYYPDSVKGRFTISRDNAKNTVYLQMNSLKPEDTAVYYCAAVSGTGTAMDYWGQGTQVTVSS | high polyreactivity
38 | QVQLVESGGGLVQAGGSLRLSCAASGRIFYYNALGWYRPAPGKERELVAAISWSGGSTYYADSVKGRFTISRDNATNTVYLQMNSLKPEDTAVYYCAVDVYGYTPRPTREPLIYEYWGQGTQVTVSS | low polyreactivity
39 | QVQLVESGGGLVQAGGSLRLSCAASGRIFYYNTMGWYRQAPGKERELVAAISRSGGSTYYADSVKGRFTISRDNAKNTVYLQMNSLKPEDTAVYYCAAVTHRYGNSEFDYWGLGTQVTVSS | high polyreactivity
40 | QVQLVESGGGLVQAGGSLRLSCAASGRIFYYNTMGWYRQAPGKERELVARITQRGGRTYYADSVKGRFTISRDYAKNTVYLQMNSLKPVDTAVYYFNAKVRGTNTAGVDYWGQGTQVTVSS | high polyreactivity
41 | QVQLVESGGGLVQAGGSLRLSCAASGRIFYYTMVWYRQAPGKERELVAAISWSGGSTYYADSVKGRFTISRDNAKNTVYLQMNSLKPEDTAVYYCATRSRRLYHYDYWGQGTQVTVSS | high polyreactivity
42 | QVQLVESGGGLVQAGGSLRLSCAASGRIFYYYAMGWSRQAPGKERELVADITWSGGSTYYADSVKVRFTISRDNAKNTVYLQMNSLKTEDTAVYYCNADRLRSTHDYWGQGTQVTVSS | high polyreactivity
43 | QVQLVESGGGLVQAGGSLRLSCAASGRIFYYYAMGWYRQAPGKEREFVAAISGSGGTTYYADSVKGRFTISLDNAKNTVYLQMNSLKPEDTAVYYCNAKAVRGRYVWFDYWGQGTQVTVSS | high polyreactivity
